According to patent US9289506B2, “Surface binding of nanoparticle based drug delivery to tissue” (Massachusetts Institute of Technology, priority 2013, dated 2016):

Columns and labels:
[1] = One-way diffusion of solutes into cartilage half disks in transport chamber, confocal microscopy imaging; type: in vitro ADME, bovine; settings: normal cartilage
From the text: Solute Types: Two types of 15 nm diameter (MW˜300 kDa) Quantum Dots (QD) were used: (i) positively charged, and (ii) charge-neutral; same concentration. Transport of FITC (MW˜300 Da, diam˜0.9 nm) and dextrans (Dex) conjugated with FITC (Sigma Aldrich) of different MW (˜8 kDa, diam˜4.3 nm; ˜40 kDa, diam˜10 nm) were also investigated.
Transport Studies: A special PMMA transparent transport chamber was designed to allow diffusion of solutes into only one side (superficial zone) of the cartilage disk. The chamber was treated with Casein to block non-specific binding of solutes to chamber surfaces. The equilibrated cartilage disks were then cut into halves and placed in the middle of the ‘slot chambers’ of the fixture. The chamber side facing the superficial zone was filled with ˜45 μl of solute-PBS solution; the other side was filled with 1×PBS alone. […]
Using a scalpel, a slice (100-200 μm thick) was then cut from the center of each disk (FIG. 1B). […] Appropriate filters were chosen to eliminate auto-fluorescence of cartilage at the settings used for imaging. […] To ensure proper image comparison, solute concentrations were chosen such that the FITC concentration in each solution was identical, thereby giving equal fluorescence intensities.

[2] = Net charge of Avidin estimated using Donnan equilibrium; type: physicochemical; settings: assuming uptake entirely due to Donnan partitioning, no binding
From the text: However, it is not certain whether the effective charge sensed during transport and uptake would include all these residues, or whether certain residues may be internal and less accessible to charge-charge interactions within the cartilage extracellular matrix. In addition, the unknown extent of Avidin glycosylation may contribute additional net negative charge that would decrease the total net charge. However, this estimate assumes that all such residues are ionized in aqueous solution and that none of these residues are internal (buried) and thereby inaccessible to charge-charge interactions within the cartilage matrix. Furthermore, this estimate neglects the effects of Avidin glycosylation which could add additional negative charge groups to the total sum. […]
[formula] (Byun et al., Arch Biochem Biophys, 2010) was measured to be, −0.13 M. Rearranging Eq. (12) gives: […]
Donnan theory (Grodzinsky et al., New York: Garland Science, 2011) is based on the assumptions that (1) all freely moving charged species (i.e., Avidin and bath ions) will partition into a charged tissue according to Boltzmann statistics and, (2) the net charge in the tissue is zero by electroneutrality (i.e., the sum of the tissue fixed charge density and mobile carrier concentrations). By fitting the Donnan theory to the equilibrium uptake data of FIG. 12A, the effective net charge of Avidin was calculated to be +6.2. […]

Which “time to penetrate the full thickness (1 mm) of the cartilage explant” value [1] does the source give for “Avidin: positively charged globular glycosylated tetrameric protein, pI 10.5, 66 kDa, diameter ~7 nm (Invitrogen); SEQ ID NO 1” here?
Its value is no more than 24 h.

What about the “upper estimate of effective net charge” value [2] of the same substance?
Its value is “+13 to +14”.
